According to US20060173159A1, “Water-soluble thioester and selenoester compounds and methods for making and using the same” (priority 2002, published 2006):
No end group written: not given here. *: point of attachment. thioester = C-terminal thioester, without the water-soluble polymer; Acm = CC(=O)NC*

Assay: Dissolution of deprotected and cleaved crude peptide-thioester in 50% aqueous acetonitrile containing 0.08% TFA
Format: physicochemical
Conditions: 50% aqueous acetonitrile containing 0.08% trifluoroacetic acid (TFA)

Substance | dissolution of deprotected and cleaved peptide-thioester
GRFN 1852-PLP3-Leu: SEQ ID NO:4 peptide, C-terminal L-thioester joined to water-soluble polyamide polymer PLP3-Leu (C(Acm)LSQLHSGLFLYQGLLQALEGISPELGPTLDTLQLDVADFATTIWQQMEEL; not fully specified (C-terminus); also: C-terminal thioester joined to PLP3-Leu polyamide polymer) | completely dissolved
GRFN 1852: SEQ ID NO:3 peptide L-thioester, non-polymer modified; comparator (C(Acm)LSQLHSGLFLYQGLLQALEGISPELGPTLDTLQLDVADFATTIWQQMEEL-thioester) | poorly soluble
